Results taken from patent US20240197839A1, “Recombinant Human Acid Alpha-Glucosidase and Uses Thereof” (Amicus Therapeutics, Inc., priority 2021, published 2024).
Marks after values point to notes of the source that are not given here. Blank lines part the entries; values can stand above or below the compound they belong to.

Legend:
CIMPR [1] = molecular target: T1, CIMPR (Homo sapiens, UniProt P11717); test: CIMPR affinity chromatography (bound vs unbound rhGAA by GAA activity); format: binding; conditions: CIMPR affinity column, fraction of total enzyme by GAA activity
From the text: Multiple batches of the rhGAA according to the disclosure were produced in shake flasks and in perfusion bioreactors using CHO cell line GA-ATB200, the product of which is referred to as “ATB200.” Weak anion exchange (“WAX”) liquid chromatography was used to fractionate ATB200 rhGAA according to terminal phosphate and sialic acid. Elution profiles were generated by eluting the ERT with increasing amount of salt. The profiles were monitored by UV (A280 nm).
To evaluate the ability of the conventional rhGAAs in MYOZYME® and LUMIZYME® to interact with the CIMPR, the two conventional rhGAA preparations were injected onto a CIMPR affinity column (which binds rhGAA having M6P groups) and the flow through collected. The bound material was eluted with a free M6 gradient. Fractions were collected in 96-well plate and GAA activity assayed by 4MU-α-glucosidase substrate. The relative amounts of unbound (flow through) and bound (M6P eluted) rhGAA were determined based on GAA activity and reported as the fraction of total enzyme. […] Indeed, only 27% of the rhGAA in MYOZYME® and 22% of the rhGAA in LUMIZYME® contained M6P that can be productive to target it to the CIMPR on muscle cells.

Gaa KO mice = test: single fiber analysis (LAMP1/LC3 co-immunofluorescence, white gastrocnemius); format: in vivo
From the text: FIG. 17 depicts co-immunofluorescent staining of LAMP1 (green) (see for example, “B”) and LC3 (red) (see, for example, “A”) in single fibers isolated from the white gastrocnemius of Gaa KO mice treated with a vehicle, alglucosidase alfa, or ATB200. “C” depicts clearance of autophagic debris and absence of enlarged lysosome. A minimum of 30 fibers were examined from each animal.
As a result, a significant portion of muscle fibers analyzed (36-60%) from ATB200-treated mice appeared normal or near-normal.

[2] = thermostability assay using SYPRO Orange; format: physicochemical
Procedure: The stability of ATB200 in acidic or neutral pH buffers was evaluated in a thermostability assay using SYPRO Orange, as the fluorescence of the dye increases when proteins denature. […] As summarized in Table 6, the addition of AT2221 increased the melting temperature (Tm) of ATB200 by nearly 10° C.

CIMPR [3] = molecular target: T1, CIMPR; test: CIMPR plate binding assay
Procedure: In addition to having a greater percentage of rhGAA that can bind to the CIMPR, it is important to understand the quality of that interaction. LUMIZYME® and ATB200 receptor binding was determined using a CIMPR plate binding assay. Briefly, CIMPR-coated plates were used to capture GAA. Varying concentrations of rhGAA were applied to the immobilized receptor and unbound rhGAA was washed off. The amount of remaining rhGAA was determined by GAA activity. […] For LUMIZYME®, there is on average only 10% of molecules having a bis-phosphorylated N-glycan. In contrast, on average every rhGAA molecule in ATB200 has at least one bis-phosphorylated N-glycan.
N-glycan analysis via MALDI-TOF mass spectrometry confirmed that on average each ATB200 molecule contains at least one natural bis-M6P N-glycan structure.

[4] = system: normal and Pompe fibroblast cell lines; test: cellular uptake of rhGAA in fibroblasts (internalized GAA by 4MU-α-Glucoside hydrolysis); format: cell-based
Procedure: The relative cellular uptake of ATB200 and LUMIZYME® rhGAA were compared using normal and Pompe fibroblast cell lines. Comparisons involved 5-100 nM of ATB200 according to the disclosure with 10-500 nM conventional rhGAA product LUMIZYME®. After 16-hr incubation, external rhGAA was inactivated with TRIS base and cells were washed 3-times with PBS prior to harvest. Internalized GAA measured by 4MU-α-Glucoside hydrolysis and was graphed relative to total cellular protein and the results appear in FIGS. 11A-11C.

T1 sequence (P11717 41-2491, species assumed): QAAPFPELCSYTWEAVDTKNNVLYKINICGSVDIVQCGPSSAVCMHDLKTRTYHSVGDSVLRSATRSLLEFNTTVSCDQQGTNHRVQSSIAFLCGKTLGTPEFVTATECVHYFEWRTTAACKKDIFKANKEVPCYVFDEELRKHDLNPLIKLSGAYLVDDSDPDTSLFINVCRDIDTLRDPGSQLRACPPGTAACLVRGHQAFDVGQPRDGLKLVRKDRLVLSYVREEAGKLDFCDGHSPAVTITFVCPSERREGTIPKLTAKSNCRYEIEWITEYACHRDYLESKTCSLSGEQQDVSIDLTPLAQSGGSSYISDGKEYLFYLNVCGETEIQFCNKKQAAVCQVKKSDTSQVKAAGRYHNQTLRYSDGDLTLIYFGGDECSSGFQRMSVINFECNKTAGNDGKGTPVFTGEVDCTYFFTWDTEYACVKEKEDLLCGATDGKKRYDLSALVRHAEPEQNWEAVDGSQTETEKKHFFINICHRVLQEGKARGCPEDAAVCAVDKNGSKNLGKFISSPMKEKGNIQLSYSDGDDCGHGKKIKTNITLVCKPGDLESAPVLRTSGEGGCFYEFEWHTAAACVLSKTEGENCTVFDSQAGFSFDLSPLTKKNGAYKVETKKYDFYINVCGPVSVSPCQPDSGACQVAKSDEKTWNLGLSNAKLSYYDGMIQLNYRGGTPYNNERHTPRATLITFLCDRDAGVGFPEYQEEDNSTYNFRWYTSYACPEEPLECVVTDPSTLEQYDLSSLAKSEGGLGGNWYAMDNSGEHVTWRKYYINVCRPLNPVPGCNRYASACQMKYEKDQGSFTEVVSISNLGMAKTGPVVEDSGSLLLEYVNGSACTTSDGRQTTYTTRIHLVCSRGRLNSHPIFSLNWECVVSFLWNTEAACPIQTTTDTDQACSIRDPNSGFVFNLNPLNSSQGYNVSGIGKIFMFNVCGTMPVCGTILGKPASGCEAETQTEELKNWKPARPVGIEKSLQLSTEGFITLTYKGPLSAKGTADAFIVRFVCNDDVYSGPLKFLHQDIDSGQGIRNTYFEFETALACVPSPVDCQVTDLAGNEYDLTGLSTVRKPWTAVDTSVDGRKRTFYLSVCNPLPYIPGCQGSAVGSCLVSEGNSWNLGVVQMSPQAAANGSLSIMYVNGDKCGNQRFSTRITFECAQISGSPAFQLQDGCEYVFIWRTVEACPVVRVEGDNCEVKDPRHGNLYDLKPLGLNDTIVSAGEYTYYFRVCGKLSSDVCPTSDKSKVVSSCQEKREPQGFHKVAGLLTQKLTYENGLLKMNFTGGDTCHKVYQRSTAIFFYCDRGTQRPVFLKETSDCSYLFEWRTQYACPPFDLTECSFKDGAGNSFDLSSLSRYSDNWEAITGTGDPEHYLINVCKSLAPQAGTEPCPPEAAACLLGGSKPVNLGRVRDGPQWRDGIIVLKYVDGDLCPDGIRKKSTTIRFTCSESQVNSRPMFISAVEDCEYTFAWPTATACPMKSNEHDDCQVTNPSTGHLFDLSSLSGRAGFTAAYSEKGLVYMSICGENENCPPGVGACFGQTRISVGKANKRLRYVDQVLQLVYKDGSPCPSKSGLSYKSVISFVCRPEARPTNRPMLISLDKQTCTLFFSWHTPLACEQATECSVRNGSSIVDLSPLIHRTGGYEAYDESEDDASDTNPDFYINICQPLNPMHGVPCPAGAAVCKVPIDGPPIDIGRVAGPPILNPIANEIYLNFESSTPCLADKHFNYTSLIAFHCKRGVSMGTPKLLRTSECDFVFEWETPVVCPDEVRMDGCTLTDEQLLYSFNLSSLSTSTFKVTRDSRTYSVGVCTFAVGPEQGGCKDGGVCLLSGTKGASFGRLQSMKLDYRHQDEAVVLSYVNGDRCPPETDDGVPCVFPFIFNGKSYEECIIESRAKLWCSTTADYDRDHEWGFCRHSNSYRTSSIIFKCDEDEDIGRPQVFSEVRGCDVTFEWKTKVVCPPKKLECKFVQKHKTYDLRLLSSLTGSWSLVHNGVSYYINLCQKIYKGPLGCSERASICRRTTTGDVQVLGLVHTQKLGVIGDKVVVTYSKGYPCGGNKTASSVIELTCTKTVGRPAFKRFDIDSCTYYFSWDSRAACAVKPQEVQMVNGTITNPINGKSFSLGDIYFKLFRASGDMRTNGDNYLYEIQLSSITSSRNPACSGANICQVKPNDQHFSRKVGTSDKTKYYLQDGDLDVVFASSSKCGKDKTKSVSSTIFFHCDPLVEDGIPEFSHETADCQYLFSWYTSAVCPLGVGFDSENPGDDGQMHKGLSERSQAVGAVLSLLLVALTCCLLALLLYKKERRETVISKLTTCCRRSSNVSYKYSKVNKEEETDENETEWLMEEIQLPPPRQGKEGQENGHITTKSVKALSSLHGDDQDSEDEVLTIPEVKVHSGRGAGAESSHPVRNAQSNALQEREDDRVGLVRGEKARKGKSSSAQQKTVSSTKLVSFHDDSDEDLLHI

rhGAA that did not bind to the CIMPR (CIMPR [1]; flow through): 73%
rhGAA that binds to the CIMPR (M6P eluted) (CIMPR [1]): 27%
Compound: MYOZYME®: conventional rhGAA product containing alglucosidase alfa, marketed by Genzyme
lysosomes and autophagic buildup compared to vehicle-treated mice (Gaa KO mice; single fibers, FIG. 17): did not show any significant difference

increase of the melting temperature (Tm) of ATB200 by addition of AT2221 ([2]; pH 7.4): ~10 °C
Compound: CCCCN1C[C@H](O)[C@@H](O)[C@H](O)[C@H]1CO [AT2221, (2R,3R,4R,5S)-1-butyl-2-(hydroxymethyl)piperidine-3,4,5-triol]
stabilization of ATB200 by AT2221 ([2]; pH 7.4, FIG. 12): stabilized ATB200 at pH 7.4 in a concentration-dependent manner

binding to CIMPR compared with LUMIZYME (CIMPR [3]; CIMPR-coated plates, varying rhGAA concentrations (FIG. 10A)): significantly better
Kd (CIMPR [3]; M6P receptor plate binding assays): 2 to 4 nM
Compound: ATB200: recombinant human acid α-glucosidase with a high content of N-glycans bearing mono-M6P and bis-M6P, produced from a GA-ATB200 CHO cell line
internalization into normal and Pompe fibroblast cells compared with LUMIZYME ([4]; 16-hr incubation, FIGS. 11A-11B): internalized to a greater degree
concentration that saturates cellular receptors ([4]; 16-hr incubation, normal and Pompe fibroblasts): about 20 nM
uptake efficiency constant (Kuptake) ([4]; extrapolated from uptake curves, FIG. 11C): 2-3 nm
Tm ([2]; pH 5.2): 67.3 °C
Tm ([2]; pH 7.4): 56.2 °C
Tm ([2]; pH 7.4 + 10 μM AT2221): 61.6 °C
Tm ([2]; pH 7.4 + 30 μM AT2221): 62.9 °C
Tm ([2]; pH 7.4 + 100 μM AT2221): 66.0 °C
Fibers with Autophagy Buildup (Gaa KO mice; Gaa KO mice): 40-64%*
area / extent of autophagic buildup (Gaa KO mice; single fibers, compared to Vehicle- or alglucosidase alfa-treated group): reduced to various degrees
